Measured values from patent US20210206875A1, “ERBB-2 TARGETING AGENT AND A BISPECIFIC ANTIBODY WITH ANTIGEN-BINDING SITES THAT BIND AN EPITOPE ON AN EXTRACELLULAR PART OF ERB-2 AND ERBB-3, FOR TREATMENT OF AN INDIVIDUAL WITH AN ERBB-2, ERBB-2/ERBB-3 POSITIVE TUMOUR” (Merus N.V., priority 2017, published 2021).

Molecular target: human ErbB-3 (HER3), on cells (human) (UniProt P21860)
Test: cell-based or functional assay

BxPC3 % Inhibition: -7%
MCF-7 IC50 (pM), HRG dependent proliferation: 504 pM
B1: #Ab6 (antibody, from another filing, IgG1, V domains shown)
VH: EVQLLESGGGLVQPGGSLRLSCAASGFTFSHYVMAWVRQAPGKGLEWVSSISSSGGWTLYADSVKGRFTISRDNSKNTLYLQMNSLRAEDTAVYYCTRGLKMATIFDYWGQGTLVTVSS
VL: QSALTQPASVSGSPGQSITISCTGTSSDVGSYNVVSWYQQHPGKAPKLIIYEVSQRPSGVSNRFSGSKSGNTASLTISGLQTEDEADYYCCSYAGSSIFVIFGGGTKVTVL
